Assay results published in paper PMC10093973, “The RNA-Binding and RNA-Melting Activities of the Multifunctional Protein Nucleobindin 1” (International Journal of Molecular Sciences, 2023).

T1: NUCB1 ΔN (Homo sapiens) (UniProt Q02818)
T1 sequence: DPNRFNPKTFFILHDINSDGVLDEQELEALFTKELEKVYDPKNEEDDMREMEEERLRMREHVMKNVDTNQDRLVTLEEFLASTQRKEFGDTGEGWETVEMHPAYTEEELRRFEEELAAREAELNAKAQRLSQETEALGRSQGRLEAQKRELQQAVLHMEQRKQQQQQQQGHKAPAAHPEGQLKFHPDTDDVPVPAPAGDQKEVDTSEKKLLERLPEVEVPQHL

T2: NUCB1 CaBD (Homo sapiens) (UniProt Q02818)
T2 sequence: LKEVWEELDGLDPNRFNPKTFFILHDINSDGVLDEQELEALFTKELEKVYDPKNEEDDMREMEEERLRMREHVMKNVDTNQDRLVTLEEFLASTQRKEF

T3: NUCB1 ΔZ (Homo sapiens) (UniProt Q02818)
T3 sequence: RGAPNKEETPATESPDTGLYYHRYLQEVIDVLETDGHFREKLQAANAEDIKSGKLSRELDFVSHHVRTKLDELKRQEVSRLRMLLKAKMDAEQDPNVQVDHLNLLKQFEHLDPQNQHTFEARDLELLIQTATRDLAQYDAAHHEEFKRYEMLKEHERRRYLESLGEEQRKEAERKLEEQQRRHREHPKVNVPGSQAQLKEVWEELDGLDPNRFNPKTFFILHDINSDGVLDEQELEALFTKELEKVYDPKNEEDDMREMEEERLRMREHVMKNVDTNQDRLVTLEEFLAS

T4: NUCB1 ΔZ (Homo sapiens, UniProt Q02818 31-320)
T4 sequence: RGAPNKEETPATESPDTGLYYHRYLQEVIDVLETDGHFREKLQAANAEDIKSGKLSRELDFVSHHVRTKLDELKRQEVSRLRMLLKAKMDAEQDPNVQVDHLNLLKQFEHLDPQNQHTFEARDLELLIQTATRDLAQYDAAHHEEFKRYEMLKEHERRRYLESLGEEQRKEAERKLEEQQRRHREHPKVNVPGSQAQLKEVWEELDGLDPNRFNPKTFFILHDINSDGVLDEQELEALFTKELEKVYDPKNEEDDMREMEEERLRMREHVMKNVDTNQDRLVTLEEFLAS

T5: NUCB1 ΔN (Homo sapiens, UniProt Q02818 239-461)
T5 sequence: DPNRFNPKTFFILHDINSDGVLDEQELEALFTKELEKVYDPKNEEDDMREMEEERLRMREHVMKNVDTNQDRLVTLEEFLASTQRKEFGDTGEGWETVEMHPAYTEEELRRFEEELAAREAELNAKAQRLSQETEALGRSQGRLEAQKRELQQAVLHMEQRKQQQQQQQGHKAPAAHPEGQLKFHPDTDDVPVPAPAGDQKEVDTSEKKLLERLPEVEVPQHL

T6: NUCB1 CaBD (Homo sapiens, UniProt Q02818 228-326)
T6 sequence: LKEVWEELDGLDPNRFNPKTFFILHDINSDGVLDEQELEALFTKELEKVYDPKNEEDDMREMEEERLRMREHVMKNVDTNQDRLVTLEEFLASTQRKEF


What was measured:
[1] = target: T1, NUCB1 ΔN (Homo sapiens); test: SPR; conditions: SPR: 50 mM Tris-HCl pH 8.0, 200 mM NaCl, 0.1% Tween-20, with or without 2 mM CaCl2, 25 °C; 5'-biotinylated RNA immobilized, NUCB1 as analyte, 1:1 model
[2] = target: T2, NUCB1 CaBD (Homo sapiens); test: SPR; conditions: SPR: 50 mM Tris-HCl pH 8.0, 200 mM NaCl, 0.1% Tween-20, with or without 2 mM CaCl2, 25 °C; 5'-biotinylated RNA immobilized, NUCB1 as analyte, 1:1 model
[3] = target: T3, NUCB1 ΔZ (Homo sapiens); test: SPR; conditions: SPR: 50 mM Tris-HCl pH 8.0, 200 mM NaCl, 0.1% Tween-20, with or without 2 mM CaCl2, 25 °C; 5'-biotinylated RNA immobilized, NUCB1 as analyte, 1:1 model
[4] = target: T4, NUCB1 ΔZ; test: SPR; SPR: 50 mM Tris-HCl pH 8.0, 200 mM NaCl, 0.1% Tween-20, with or without 2 mM CaCl2, 25 °C; 5'-biotinylated RNA immobilized, NUCB1 as analyte, 1:1 model; conditions: protein: recombinant; tags: N-terminal His6; label: 5'-biotin
[5] = target: T5, NUCB1 ΔN; test: as above; conditions: protein: recombinant; tags: N-terminal His6; label: 5'-biotin
[6] = target: T6, NUCB1 CaBD; test: as above; conditions: protein: recombinant; tags: N-terminal His6; label: 5'-biotin
[7] = target: the molecule itself; test: SEC; size-exclusion chromatography of the final preparations on Superdex 200 in 150 mM NaCl, 50 mM Tris-HCl (pH 8.0); oligomeric state of each protein

| Molecule | Kd [1] [nM] | Kd [2] [nM] | Kd [3] [nM] | stoichiometry N [7] | further results |
| --- | --- | --- | --- | --- | --- |
| GUGGUCAGUCGAGUGGAAAAAAAAAAAAAAAAAA [A-rich] | 1.4 | 5.7 | 0.3 | – | – |
| GUGGUCAGUCGAGUGGGGGGGG [G-rich] | 5.3 | 18.2 | 3.1 | – | – |
| GUGGUCAGUCGAGUGGUUUUUUUUUUUUUUUUUU [U-rich] | 1.7 | 0.2 | 0.4 | – | – |
| GUGGUCAGUCGAGUGGUAACACUGUCUGGUAACGAUGU (ssRNA) [miR-200a-3p] | – | – | – | – | Kd [4]: 0.3 ± 0.01 nM; Kd [5]: 0.6 ± 0.09 nM; Kd [6]: 5.2 ± 0.2 nM |
| Nucleobindin 1 (NUCB1) lacking the signal peptide (1-30 aa) (natural protein, human, UniProt Q02818 31-461, looked up, the C-terminal limit 461 is the one printed for NUCB1 ΔN, which was made with the same reverse primer; Cloned in pET-28a between EcoR I and Hind III from a HEK293T cDNA library; No removal of the His6 tag is described; also called Calnuc; intact NUCB1; source: E. coli BL21(DE3)/pRARE, purified (Ni-NTA agarose; analysed by SEC on Superdex 200)) RGAPNKEETPATESPDTGLYYHRYLQEVIDVLETDGHFREKLQAANAEDIKSGKLSRELDFVSHHVRTKLDELKRQEVSRLRMLLKAKMDAEQDPNVQVDHLNLLKQFEHLDPQNQHTFEARDLELLIQTATRDLAQYDAAHHEEFKRYEMLKEHERRRYLESLGEEQRKEAERKLEEQQRRHREHPKVNVPGSQAQLKEVWEELDGLDPNRFNPKTFFILHDINSDGVLDEQELEALFTKELEKVYDPKNEEDDMREMEEERLRMREHVMKNVDTNQDRLVTLEEFLASTQRKEFGDTGEGWETVEMHPAYTEEELRRFEEELAAREAELNAKAQRLSQETEALGRSQGRLEAQKRELQQAVLHMEQRKQQQQQQQGHKAPAAHPEGQLKFHPDTDDVPVPAPAGDQKEVDTSEKKLLERLPEVEVPQHL | – | – | – | 2 | – |
| NUCB1 ΔN (239-461 aa) (domain or fragment, human, UniProt Q02818 239-461, looked up, Cloned in pET-28a; source: E. coli BL21(DE3)/pRARE, purified (Ni-NTA agarose; analysed by SEC on Superdex 200)) DPNRFNPKTFFILHDINSDGVLDEQELEALFTKELEKVYDPKNEEDDMREMEEERLRMREHVMKNVDTNQDRLVTLEEFLASTQRKEFGDTGEGWETVEMHPAYTEEELRRFEEELAAREAELNAKAQRLSQETEALGRSQGRLEAQKRELQQAVLHMEQRKQQQQQQQGHKAPAAHPEGQLKFHPDTDDVPVPAPAGDQKEVDTSEKKLLERLPEVEVPQHL | – | – | – | 2 | – |
